Earlier results on one sequence are cited in PMC5057102.

In general, Kd refers to the equilibrium constant for the complex coming apart.

This data set has as its target Amyloid beta oligomers (1-40/1-42, form not specified) (UniProt P05067). Put plainly: not stated (cited). Conditions: 5'-HS (thiol); 0.1 M phosphate buffer (Na2HPO4/NaH2PO4) pH 7.4; incubations at 37 C (Abeta 60 min, aptamer-Au-Th 3 h); 1% BSA block.

Amyloid beta oligomers (1-40/1-42, form not specified), sequence (P05067 672-711): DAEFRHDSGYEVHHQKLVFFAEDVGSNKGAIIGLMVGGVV

For the sequence “GCCTGTGTTGGGGCGGGTGCG [Abeta oligomer aptamer (thiolated, on AuNP with thionine)]”, the Kd was 0.025 µM.
